Reference: US20260242735A1 (UNIVERSIT T BASEL, published 2026)

B1: Refmab #4 (antibody, V domains shown)
VH: QVQLVQSGAEVKKPGESVKVSCKASGYTFTNYGMNWVKQAPGQGLEWMGWINTYTGEPTYADKFQGRVTMTTDTSTSTAYMEIRNLGGDDTAVYYCARWSWSDGYYVYFDYWGQGTSVTVSS
VL: DIVMTQSPDSLTVSLGERTTINCKSSQSVLDSSTNKNSLAWYQQKPGQPPKLLLSWASTRESGIPDRFSGSGSGTDFTLTIDSPQPEDSATYYCQQSAHFPITFGQGTRLEIK
notes: In the alanine scan antibodies were used as IgG or Fab
B2: Refmab #4 (antibody, V domains shown)
VH: B1 VH
VL: B1 VL
notes: The alanine scan used IgG or Fab
B3: Refmab #2 (antibody, V domains shown)
VH: QVQLVQSGAEVKKPGSSVKVSCKASGGTFSDYAISWVRQAPGQGLEWMGRIIPILGVADYAQKFQGRVTITADKSTRTAYMELSSLRSEDTAVYYCARNWADAFDIWGQGTMVTVSS
VL: DIQLTQSPSSLSASVGDRVTITCRASQGISSVLAWYQQKPGKAPKLLIYDASSLESGVPSRFSGSGSGTDFTLTISSLQPEDFATYYCQQFDSSITFGQGTKLEIK
notes: as for B2
B4: Refmab #3 (antibody, V domains shown)
VH: QVQLVQSGAEVKKPGSSVKVSCKASGYTFTDYNMHWVRQAPGQGLEWIGYIYPYNGGTGYNQKFKSKATITADESTNTAYMELSSLRSEDTAVYYCARGRPAMDYWGQGTLVTVSS
VL: DIQMTQSPSSLSASVGDRVTITCRASESVDNYGISFMNWFQQKPGKAPKLLIYAASNQGSGVPSRFSGSGSGTDFTLTISSLQPDDFATYYCQQSKEVPWTFGQGTKVEIK
notes: as for B2
B5: Refmab #1 (antibody, V domains shown)
VH: EVQLVQSGAEVKKPGSSVKVSCKASGYTITDSNIHWVRQAPGQSLEWIGYIYPYNGGTDYNQKFKNRATLTVDNPTNTAYMELSSLRSEDTAFYYCVNGNPWLAYWGQGTLVTVSS
VL: DIQLTQSPSTLSASVGDRVTITCRASESLDNYGIRFLTWFQQKPGKAPKLLMYAASNQGSGVPSRFSGSGSGTEFTLTISSLQPDDFATYYCQQTKEVPWSFGQGTKVEVK
notes: The alanine scan used IgG or Fab; also called hP67.6

Legend:
Experiment in all cases: alanine scan, flow cytometry, HEK293-T;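 further: antibody binding to each alanine-substituted CD33 mutant expressed transiently in HEK293-T, read as fluorescence minus background, mean of duplicates, relative to wild-type CD33 set as 100%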
[1] = target: human CD33 P174A (human, UniProt P20138 18-364)
human CD33 P174A, sequence (P20138 18-364 P174A limits assumed): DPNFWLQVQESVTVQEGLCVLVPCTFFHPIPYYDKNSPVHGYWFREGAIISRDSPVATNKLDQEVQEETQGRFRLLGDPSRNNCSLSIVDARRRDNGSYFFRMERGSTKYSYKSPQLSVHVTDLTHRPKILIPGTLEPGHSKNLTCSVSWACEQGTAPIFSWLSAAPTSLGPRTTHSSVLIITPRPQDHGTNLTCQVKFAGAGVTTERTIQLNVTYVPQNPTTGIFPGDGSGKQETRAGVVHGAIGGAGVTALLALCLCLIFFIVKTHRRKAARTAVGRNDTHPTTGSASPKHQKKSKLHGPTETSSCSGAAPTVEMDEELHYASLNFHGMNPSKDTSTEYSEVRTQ
Description: (§1) An alanine scan on human CD33 was performed to the determine the residues on CD33 that are involved in binding to the antibodies investigated. […] Briefly, a mutation library of CD33 was created by high-throughput, site-directed mutagenesis. Each residue was individually mutated to alanine, with alanine codons mutated to serine. The mutant library was arrayed in 384-well microplates and transiently transfected into HEK293-T. Following transfection, cells were incubated with the indicated antibodies (IgG or Fab) at concentrations pre-determined using an independent immunofluorescence titration curve on wild type CD33. […] Binding of each antibody to each mutant clone was determined in duplicates. For each point, background fluorescence was subtracted from the raw data, which were then normalized to antibody reactivity with wild type CD33.
(§2) Critical residues for antibody binding (outlined in dark grey) were residues whose mutations led to a binding of the test Abs of less than 20%. Additional secondary residues (outlined in light grey) were identified that led to a binding of the test Abs of between 20 and 40% as compared to the wild type CD33.

[2] = target: human CD33 F177A (human, UniProt P20138 18-364)
human CD33 F177A, sequence (P20138 18-364 F177A limits assumed): as the sequence (P20138 18-364 P174A limits assumed) above, with A157P, F160A counted along it
Description: as §1, §2

[3] = target: human CD33 W179A (human, UniProt P20138 18-364)
human CD33 W179A, sequence (P20138 18-364 W179A limits assumed): as the sequence (P20138 18-364 P174A limits assumed) above, with A157P, W162A counted along it
Description: as §1, §2

[4] = target: human CD33 L180A (human, UniProt P20138 18-364)
human CD33 L180A, sequence (P20138 18-364 L180A limits assumed): as the sequence (P20138 18-364 P174A limits assumed) above, with A157P, L163A counted along it
Description: as §1, §2

[5] = target: human CD33 A183S (human, UniProt P20138 18-364)
human CD33 A183S, sequence (P20138 18-364 A183S limits assumed): as the sequence (P20138 18-364 P174A limits assumed) above, with A157P, A166S counted along it
Description: as §1, §2

[6] = target: human CD33 T185A (human, UniProt P20138 18-364)
human CD33 T185A, sequence (P20138 18-364 T185A limits assumed): as the sequence (P20138 18-364 P174A limits assumed) above, with A157P, T168A counted along it
Description: as §1, §2

[7] = target: human CD33 L187A (human, UniProt P20138 18-364)
human CD33 L187A, sequence (P20138 18-364 L187A limits assumed): as the sequence (P20138 18-364 P174A limits assumed) above, with A157P, L170A counted along it
Description: as §1, §2

[8] = target: human CD33 P189A (human, UniProt P20138 18-364)
human CD33 P189A, sequence (P20138 18-364 P189A limits assumed): as the sequence (P20138 18-364 P174A limits assumed) above, with A157P, P172A counted along it
Description: as §1, §2

[9] = target: human CD33 S194A (human, UniProt P20138 18-364)
human CD33 S194A, sequence (P20138 18-364 S194A limits assumed): as the sequence (P20138 18-364 P174A limits assumed) above, with A157P, S177A counted along it
Description: as §1, §2

[10] = target: human CD33 R202A (human, UniProt P20138 18-364)
human CD33 R202A, sequence (P20138 18-364 R202A limits assumed): as the sequence (P20138 18-364 P174A limits assumed) above, with A157P, R185A counted along it
Description: as §1, §2

[11] = target: human CD33 P203A (human, UniProt P20138 18-364)
human CD33 P203A, sequence (P20138 18-364 P203A limits assumed): as the sequence (P20138 18-364 P174A limits assumed) above, with A157P, P186A counted along it
Description: as §1, §2

[12] = target: human CD33 V214A (human, UniProt P20138 18-364)
human CD33 V214A, sequence (P20138 18-364 V214A limits assumed): as the sequence (P20138 18-364 P174A limits assumed) above, with A157P, V197A counted along it
Description: as §1, §2

[13] = target: human CD33 K215A (human, UniProt P20138 18-364)
human CD33 K215A, sequence (P20138 18-364 K215A limits assumed): as the sequence (P20138 18-364 P174A limits assumed) above, with A157P, K198A counted along it
Description: as §1, §2

[14] = target: human CD33 G218A (human, UniProt P20138 18-364)
human CD33 G218A, sequence (P20138 18-364 G218A limits assumed): as the sequence (P20138 18-364 P174A limits assumed) above, with A157P, G201A counted along it
Description: as §1, §2

[15] = target: human CD33 V221A (human, UniProt P20138 18-364)
human CD33 V221A, sequence (P20138 18-364 V221A limits assumed): as the sequence (P20138 18-364 P174A limits assumed) above, with A157P, V204A counted along it
Description: as §1, §2

[16] = target: human CD33 P235A (human, UniProt P20138 18-364)
human CD33 P235A, sequence (P20138 18-364 P235A limits assumed): as the sequence (P20138 18-364 P174A limits assumed) above, with A157P, P218A counted along it
Description: as §1, §2

[17] = target: human CD33 N237A (human, UniProt P20138 18-364)
human CD33 N237A, sequence (P20138 18-364 N237A limits assumed): as the sequence (P20138 18-364 P174A limits assumed) above, with A157P, N220A counted along it
Description: as §1, §2

[18] = target: human CD33 Q171A (human, UniProt P20138 18-364)
human CD33 Q171A, sequence (P20138 18-364 Q171A limits assumed): as the sequence (P20138 18-364 P174A limits assumed) above, with Q154A, A157P counted along it
Description: as §1, §2

[19] = target: human CD33 V257A (human, UniProt P20138 18-364)
human CD33 V257A, sequence (P20138 18-364 V257A limits assumed): as the sequence (P20138 18-364 P174A limits assumed) above, with A157P, V240A counted along it
Description: as §1, §2

[20] = target: human CD33 G260A (human, UniProt P20138 18-364)
human CD33 G260A, sequence (P20138 18-364 G260A limits assumed): as the sequence (P20138 18-364 P174A limits assumed) above, with A157P, G243A counted along it
Description: as §1, §2

[21] = target: human CD33 A265S (human, UniProt P20138 18-364)
human CD33 A265S, sequence (P20138 18-364 A265S limits assumed): as the sequence (P20138 18-364 P174A limits assumed) above, with A157P, A248S counted along it
Description: as §1, §2

[22] = target: human CD33 G266A (human, UniProt P20138 18-364)
human CD33 G266A, sequence (P20138 18-364 G266A limits assumed): as the sequence (P20138 18-364 P174A limits assumed) above, with A157P, G249A counted along it
Description: as §1, §2

[23] = target: human CD33 I278A (human, UniProt P20138 18-364)
human CD33 I278A, sequence (P20138 18-364 I278A limits assumed): as the sequence (P20138 18-364 P174A limits assumed) above, with A157P, I261A counted along it
Description: as §1, §2

[24] = target: human CD33 F280A (human, UniProt P20138 18-364)
human CD33 F280A, sequence (P20138 18-364 F280A limits assumed): as the sequence (P20138 18-364 P174A limits assumed) above, with A157P, F263A counted along it
Description: as §1, §2

[25] = target: human CD33 K283A (human, UniProt P20138 18-364)
human CD33 K283A, sequence (P20138 18-364 K283A limits assumed): as the sequence (P20138 18-364 P174A limits assumed) above, with A157P, K266A counted along it
Description: as §1, §2

[26] = target: human CD33 R287A (human, UniProt P20138 18-364)
human CD33 R287A, sequence (P20138 18-364 R287A limits assumed): as the sequence (P20138 18-364 P174A limits assumed) above, with A157P, R270A counted along it
Description: as §1, §2

[27] = target: human CD33 A290S (human, UniProt P20138 18-364)
human CD33 A290S, sequence (P20138 18-364 A290S limits assumed): as the sequence (P20138 18-364 P174A limits assumed) above, with A157P, A273S counted along it
Description: as §1, §2

[28] = target: human CD33 T302A (human, UniProt P20138 18-364)
human CD33 T302A, sequence (P20138 18-364 T302A limits assumed): as the sequence (P20138 18-364 P174A limits assumed) above, with A157P, T285A counted along it
Description: as §1, §2

[29] = target: human CD33 A306S (human, UniProt P20138 18-364)
human CD33 A306S, sequence (P20138 18-364 A306S limits assumed): as the sequence (P20138 18-364 P174A limits assumed) above, with A157P, A289S counted along it
Description: as §1, §2

[30] = target: human CD33 S307A (human, UniProt P20138 18-364)
human CD33 S307A, sequence (P20138 18-364 S307A limits assumed): as the sequence (P20138 18-364 P174A limits assumed) above, with A157P, S290A counted along it
Description: as §1, §2

[31] = target: human CD33 Q311A (human, UniProt P20138 18-364)
human CD33 Q311A, sequence (P20138 18-364 Q311A limits assumed): as the sequence (P20138 18-364 P174A limits assumed) above, with A157P, Q294A counted along it
Description: as §1, §2

[32] = target: human CD33 K312A (human, UniProt P20138 18-364)
human CD33 K312A, sequence (P20138 18-364 K312A limits assumed): as the sequence (P20138 18-364 P174A limits assumed) above, with A157P, K295A counted along it
Description: as §1, §2

[33] = target: human CD33 K313A (human, UniProt P20138 18-364)
human CD33 K313A, sequence (P20138 18-364 K313A limits assumed): as the sequence (P20138 18-364 P174A limits assumed) above, with A157P, K296A counted along it
Description: as §1, §2

[34] = target: human CD33 L316A (human, UniProt P20138 18-364)
human CD33 L316A, sequence (P20138 18-364 L316A limits assumed): as the sequence (P20138 18-364 P174A limits assumed) above, with A157P, L299A counted along it
Description: as §1, §2

[35] = target: human CD33 H317A (human, UniProt P20138 18-364)
human CD33 H317A, sequence (P20138 18-364 H317A limits assumed): as the sequence (P20138 18-364 P174A limits assumed) above, with A157P, H300A counted along it
Description: as §1, §2

| Binder | Mean % WT Binding [19] [% WT binding] | Mean % WT Binding [20] [% WT binding] | Mean % WT Binding [21] [% WT binding] | Mean % WT Binding [22] [% WT binding] | Mean % WT Binding [23] [% WT binding] | Mean % WT Binding [24] [% WT binding] | Mean % WT Binding [25] [% WT binding] | Mean % WT Binding [26] [% WT binding] | Mean % WT Binding [27] [% WT binding] | Mean % WT Binding [28] [% WT binding] | Mean % WT Binding [29] [% WT binding] | Mean % WT Binding [30] [% WT binding] | Mean % WT Binding [31] [% WT binding] | Mean % WT Binding [32] [% WT binding] | Mean % WT Binding [33] [% WT binding] | Mean % WT Binding [34] [% WT binding] | Mean % WT Binding [35] [% WT binding] | other results |
| --- | --- | --- | --- | --- | --- | --- | --- | --- | --- | --- | --- | --- | --- | --- | --- | --- | --- | --- |
| B1 |  |  |  |  |  |  |  |  |  |  |  |  |  |  |  |  |  | Mean % WT Binding [1]: 118%; Mean % WT Binding [2]: 25.4%; Mean % WT Binding [3]: 83.1%; Mean % WT Binding [4]: 101%; Mean % WT Binding [5]: 103%; Mean % WT Binding [6]: 98.9%; Mean % WT Binding [7]: 108%; Mean % WT Binding [8]: 98.2%; Mean % WT Binding [9]: 79%; Mean % WT Binding [10]: 88.7%; Mean % WT Binding [11]: 112%; Mean % WT Binding [12]: 101%; Mean % WT Binding [13]: 96.7%; Mean % WT Binding [14]: 102%; Mean % WT Binding [15]: 104%; Mean % WT Binding [16]: 101%; Mean % WT Binding [17]: 72.9%; Mean % WT Binding [18]: 102% |
| B2 | 110 | 106 | 126 | 112 | 116 | 92.3 | 84 | 65.3 | 107 | 98.2 | 79.3 | 114 | 102 | 98.9 | 87.7 | 80 | 82.6 |  |
| B3 | 108 | 105 | 104 | 116 | 106 | 120 | 102 | 110 | 120 | 90.7 | 85.1 | 112 | 99.5 | 110 | 108 | 104 | 99.8 |  |
| B4 | 89 | 140 | 92.4 | 97.8 | 100 | 99 | 90.9 | 112 | 97.2 | 101 | 111 | 60.1 | 124 | 99.6 | 137 | 90.4 | 157 |  |
| B5 | 102 | 81.9 | 93.2 | 100 | 99.1 | 98.4 | 92.7 | 94.7 | 105 | 95 | 102 | 94.8 | 90.4 | 83.8 | 84.1 | 84.6 | 80.8 |  |
